Results taken from the supplement of paper PMC5998384.

Tests used:
[1] = tested on: HeLa Kyoto; assay: thermal stability score vs G1/S (z-score of summed log2 fold changes over temperatures); higher = more thermally stable than in G1/S
[2] = tested on: HeLa Kyoto; assay: melting temperature (median over replicates), in situ; higher = more thermally stable
[3] = tested on: HeLa Kyoto; assay: solubility change mitosis vs G1/S (difference of NP-40 vs SDS log2 ratios) (log2 ratio difference); higher = more soluble in mitosis
[4] = tested on: HeLa Kyoto; assay: solubility in G1/S (NP-40 vs SDS abundance) (log2 ratio); higher = more soluble; details: cell cycle stage: G1/S
[5] = cell cycle stage: early G1 (4.5 h after nocodazole release)
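Wherever melting temperature (median over replicates), in situ is given: HeLa Kyoto cells synchronized by double thymidine or nocodazole block, proteins quantified by TMT10plex mass spectrometry, three independent biological replicates.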
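Wherever solubility change mitosis vs G1/S (difference of NP-40 vs SDS log2 ratios) is given: synchronized HeLa Kyoto cells (double thymidine block for G1/S, nocodazole release for mitosis), protein amounts in NP-40 versus SDS lysates quantified by mass spectrometry, three biological replicates.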
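Wherever solubility in G1/S (NP-40 vs SDS abundance) is given: HeLa Kyoto cells arrested at G1/S by double thymidine block, proteins quantified by TMT10plex mass spectrometry in mild NP-40 versus SDS extracts, three biological replicates.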
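Wherever thermal stability score vs G1/S (z-score of summed log2 fold changes over temperatures) is given: synchronized HeLa Kyoto cells, proteins quantified by TMT10plex mass spectrometry, three biological replicates, mitosis taken 0.5 h after nocodazole release, G1/S directly after double thymidine block.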

Sequence	thermal stability score [1, 5]	thermal stability score ([1]; cell cycle stage: mitosis)	melting temperature ([2]; cell cycle stage: G1/S) [°C]	melting temperature ([2]; cell cycle stage: mitosis) [°C]	solubility change mitosis (log2) [3]	solubility in G1/S (log2) [4]
MARYEEVSVSGFEEFHRAVEQHNGKTIFAYFTGSKDAGGKSWCPDCVQAEPVVREGLKHISEGCVFIYCQVGEKPYWKDPNNDFRKNLKVTAVPTLLKYGTPQKLVESECLQANLVEMLFSED [TXNDC17]	4.94	2.6	50.8	51.6	-0.128	0.304
MASADSRRVADGGGAGGTFQPYLDTLRQELQQTDPTLLSVVVAVLAVLLTLVFWKLIRSRRSSQRAVLLVGLCDSGKTLLFVRLLTGLYRDTQTSITDSCAVYRVNNNRGNSLTLIDLPGHESLRLQFLERFKSSARAIVFVVDSAAFQREVKDVAEFLYQVLIDSMGLKNTPSFLIACNKQDIAMAKSAKLIQQQLEKELNTLRVTRSAAPSTLDSSSTAPAQLGKKGKEFEFSQLPLKVEFLECSAKGGRGDVGSADIQDLEKWLAKIA [SRPRB]	3.56	5.21	50.2	50	-0.0359	0.446
MASATAAAARRGLGRALPLFWRGYQTERGVYGYRPRKPESREPQGALERPPVDHGLARLVTVYCEHGHKAAKINPLFTGQALLENVPEIQALVQTLQGPFHTAGLLNMGKEEASLEEVLVYLNQIYCGQISIETSQLQSQDEKDWFAKRFEELQKETFTTEERKHLSKLMLESQEFDHFLATKFSTVKRYGGEGAESMMGFFHELLKMSAYSGITDVIIGMPHRGRLNLLTGLLQFPPELMFRKMRGLSEFPENFSATGDVLSHLTSSVDLYFGAHHPLHVTMLPNPSHLEAVNPVAVGKTRGRQQSRQDGDYSPDNSAQPGDRVICLQVHGDASFCGQGIVPETFTLSNLPHFRIGGSVHLIVNNQLGYTTPAERGRSSLYCSDIGKLVGCAIIHVNGDSPEEVVRATRLAFEYQRQFRKDVIIDLLCYRQWGHNELDEPFYTNPIMYKIIRARKSIPDTYAEHLIAGGLMTQEEVSEIKSSYYAKLNDHLNNMAHYRPPALNLQAHWQGLAQPEAQITTWSTGVPLDLLRFVGMKSVEVPRELQMHSHLLKTHVQSRMEKMMDGIKLDWATAEALALGSLLAQGFNVRLSGQDVGRGTFSQRHAIVVCQETDDTYIPLNHMDPNQKGFLEVSNSPLSEEAVLGFEYGMSIESPKLLPLWEAQFGDFFNGAQIIFDTFISGGEAKWLLQSGIVILLPHGYDGAGPDHSSCRIERFLQMCDSAEEGVDGDTVNMFVVHPTTPAQYFHLLRRQMVRNFRKPLIVASPKMLLRLPAAVSTLQEMAPGTTFNPVIGDSSVDPKKVKTLVFCSGKHFYSLVKQRESLGAKKHDFAIIRVEELCPFPLDSLQQEMSKYKHVKDHIWSQEEPQNMGPWSFVSPRFEKQLACKLRLVGRPPLPVPAVGIGTVHLHQHEDILAKTFA [DHTKD1]	-0.797	-0.271	51.2	51.4	-0.0218	-0.0401
MASCPDSDNSWVLAGSESLPVETLGPASRMDPESERALQAPHSPSKTDGKELAGTMDGEGTLFQTESPQSGSILTEETEVKGTLEGDVCGVEPPGPGDTVVQGDLQETTVVTGLGPDTQDLEGQSPPQSLPSTPKAAWIREEGRCSSSDDDTDVDMEGLRRRRGREAGPPQPMVPLAVENQAGGEGAGGELGISLNMCLLGALVLLGLGVLLFSGGLSESETGPMEEVERQVLPDPEVLEAVGDRQDGLREQLQAPVPPDSVPSLQNMGLLLDKLAKENQDIRLLQAQLQAQKEELQSLMHQPKGLEEENAQLRGALQQGEAFQRALESELQQLRARLQGLEADCVRGPDGVCLSGGRGPQGDKAIREQGPREQEPELSFLKQKEQLEAEAQALRQELERQRRLLGSVQQDLERSLQDASRGDPAHAGLAELGHRLAQKLQGLENWGQDPGVSANASKAWHQKSHFQNSREWSGKEKWWDGQRDRKAEHWKHKKEESGRERKKNWGGQEDREPAGRWKEGRPRVEESGSKKEGKRQGPKEPPRKSGSFHSSGEKQKQPRWREGTKDSHDPLPSWAELLRPKYRAPQGCSGVDECARQEGLTFFGTELAPVRQQELASLLRTYLARLPWAGQLTKELPLSPAFFGEDGIFRHDRLRFRDFVDALEDSLEEVAVQQTGDDDEVDDFEDFIFSHFFGDKALKKRSGKKDKHSQSPRAAGPREGHSHSHHHHHRG [PBXIP1]	-1.68	0.474	55.4	53.7	-0.0444	-0.166
MASEEASLRALESLMTEFFHDCTTNERKREIEELLNNFAQQIGAWRFCLYFLSSTRNDYVMMYSLTVFENLINKMWLGVPSQDKMEIRSCLPKLLLAHHKTLPYFIRNKLCKVIVDIGRQDWPMFYHDFFTNILQLIQSPVTTPLGLIMLKTTSEELACPREDLSVARKEELRKLLLDQVQTVLGLLTGILETVWDKHSVTAATPPPSPTSGESGDLLSNLLQSPSSAKLLNQPIPILDVESEYICSLALECLAHLFSWIPLSASITPSLLTTIFHFARFGCDIRARKMASVNGSSQNCVSGQERGRLGVLAMSCINELMSKNCVPMEFEEYLLRMFQQTFYLLQKITKDNNAHTVKSRLEELDESYIEKFTDFLRLFVSVHLRRIESYSQFPVVEFLTLLFKYTFHQPTHEGYFSCLDIWTLFLDYLTSKIKSRLGDKEAVLNRYEDALVLLLTEVLNRIQFRYNQAQLEELDDETLDDDQQTEWQRYLRQSLEVVAKVMELLPTHAFSTLFPVLQDNLEVYLGLQQFIVTSGSGHRLNITAENDCRRLHCSLRDLSSLLQAVGRLAEYFIGDVFAARFNDALTVVERLVKVTLYGSQIKLYNIETAVPSVLKPDLIDVHAQSLAALQAYSHWLAQYCSEVHRQNTQQFVTLISTTMDAITPLISTKVQDKLLLSACHLLVSLATTVRPVFLISIPAVQKVFNRITDASALRLVDKAQVLVCRALSNILLLPWPNLPENEQQWPVRSINHASLISALSRDYRNLKPSAVAPQRKMPLDDTKLIIHQTLSVLEDIVENISGESTKSRQICYQSLQESVQVSLALFPAFIHQSDVTDEMLSFFLTLFRGLRVQMGVPFTEQIIQTFLNMFTREQLAESILHEGSTGCRVVEKFLKILQVVVQEPGQVFKPFLPSIIALCMEQVYPIIAERPSPDVKAELFELLFRTLHHNWRYFFKSTVLASVQRGIAEEQMENEPQFSAIMQAFGQSFLQPDIHLFKQNLFYLETLNTKQKLYHKKIFRTAMLFQFVNVLLQVLVHKSHDLLQEEIGIAIYNMASVDFDGFFAAFLPEFLTSCDGVDANQKSVLGRNFKMDRDLPSFTQNVHRLVNDLRYYRLCNDSLPPGTVKL [XPO6]	0.528	0.436	49.6	50	-0.202	-0.281
MASEKPLAAVTCTAPVNIAVIKYWGKRDEELVLPINSSLSVTLHQDQLKTTTTAVISKDFTEDRIWLNGREEDVGQPRLQACLREIRCLARKRRNSRDGDPLPSSLSCKVHVASVNNFPTAAGLASSAAGYACLAYTLARVYGVESDLSEVARRGSGSACRSLYGGFVEWQMGEQADGKDSIARQVAPESHWPELRVLILVVSAEKKLTGSTVGMRASVETSPLLRFRAESVVPARMAEMARCIRERDFPSFAQLTMKDSNQFHATCLDTFPPISYLNAISWRIIHLVHRFNAHHGDTKVAYTFDAGPNAVIFTLDDTVAEFVAAVWHGFPPGSNGDTFLKGLQVRPAPLSAELQAALAMEPTPGGVKYIIVTQVGPGPQILDDPCAHLLGPDGLPKPAA [MVD]	-0.632	-0.962	52.6	52.6	-0.138	0.321
